In PMC11481066:

Target: SARS-CoV-2 spike protein receptor binding domain, Delta variant subvariant Δ1 (B.1.617.2) (UniProt P0DTC2)
Test: BLI
Details: parent: 168.4

ab8 nanobody, wild type E127W gave a Kd of 0.59 nM.
